This is an account of results in patent US20040175375A1 (SEOUL NATIONAL UNIVERSITY INDUSTRY FOUNDATION, published 2004).

The target in data set [1] is T1, myc-(p38/JTV-1), amino acids 1-312 (full length).
T1 chain: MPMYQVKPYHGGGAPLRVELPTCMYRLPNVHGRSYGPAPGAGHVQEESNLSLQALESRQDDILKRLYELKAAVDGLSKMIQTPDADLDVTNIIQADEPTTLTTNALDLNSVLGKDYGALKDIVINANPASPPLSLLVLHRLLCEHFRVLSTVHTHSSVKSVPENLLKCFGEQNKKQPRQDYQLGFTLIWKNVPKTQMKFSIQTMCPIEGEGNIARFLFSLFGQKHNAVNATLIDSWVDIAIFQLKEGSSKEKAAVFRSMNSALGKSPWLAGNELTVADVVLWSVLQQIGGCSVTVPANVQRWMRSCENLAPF

The next data set has as its target T2, HA-FBP (human, UniProt Q96AE4 1-644).
T2 construct: also called HA-tagged FBP; FBP expression plasmid product; not shown: HA tag from HA-tagged pcDNA3 (Invitrogen)
T2 sequence (looked up): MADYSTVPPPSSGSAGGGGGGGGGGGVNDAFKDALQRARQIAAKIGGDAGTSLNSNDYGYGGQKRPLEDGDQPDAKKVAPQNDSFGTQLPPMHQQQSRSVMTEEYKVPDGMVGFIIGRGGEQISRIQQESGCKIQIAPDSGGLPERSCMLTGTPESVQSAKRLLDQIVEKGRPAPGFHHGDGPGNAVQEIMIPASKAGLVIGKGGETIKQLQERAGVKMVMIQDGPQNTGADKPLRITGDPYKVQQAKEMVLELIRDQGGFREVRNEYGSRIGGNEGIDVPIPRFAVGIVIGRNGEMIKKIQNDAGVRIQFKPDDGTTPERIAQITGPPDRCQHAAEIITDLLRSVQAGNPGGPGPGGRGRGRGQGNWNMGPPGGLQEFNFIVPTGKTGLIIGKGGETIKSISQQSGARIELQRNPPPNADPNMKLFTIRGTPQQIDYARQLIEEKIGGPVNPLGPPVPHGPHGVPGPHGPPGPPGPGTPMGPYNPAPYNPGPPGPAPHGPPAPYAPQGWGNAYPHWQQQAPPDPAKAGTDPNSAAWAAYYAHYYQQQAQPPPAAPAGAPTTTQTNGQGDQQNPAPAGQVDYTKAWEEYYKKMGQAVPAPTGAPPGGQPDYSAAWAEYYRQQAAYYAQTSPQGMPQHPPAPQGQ
Briefly: co-immunoprecipitation with anti-myc from 293 cells, western blot. As for the experimental part:
The transfected cells were lysed with the RIPA buffer for 16 hours after the transfection. […] After a protein A-agarose bead had been added to the above reactant, the mixture was incubated further for 1 hour at 4° C. The bead was washed with lysis buffer four times. The precipitated proteins were analyzed by SDS-PAGE and then transferred onto nitrocellulose membranes.
Background: A western blot detects proteins with antibodies after separation by electrophoresis.

Data set [2] has as its target T3, B42-WRS (tryptophanyl-tRNA synthetase) (UniProt P23381 1-471).
T3 construct: Yeast two-hybrid prey; also called tryptophanyl-WRS; pB42-WRS; not shown: B42 protein from pB42 vector (Invitrogen)
T3 sequence (looked up): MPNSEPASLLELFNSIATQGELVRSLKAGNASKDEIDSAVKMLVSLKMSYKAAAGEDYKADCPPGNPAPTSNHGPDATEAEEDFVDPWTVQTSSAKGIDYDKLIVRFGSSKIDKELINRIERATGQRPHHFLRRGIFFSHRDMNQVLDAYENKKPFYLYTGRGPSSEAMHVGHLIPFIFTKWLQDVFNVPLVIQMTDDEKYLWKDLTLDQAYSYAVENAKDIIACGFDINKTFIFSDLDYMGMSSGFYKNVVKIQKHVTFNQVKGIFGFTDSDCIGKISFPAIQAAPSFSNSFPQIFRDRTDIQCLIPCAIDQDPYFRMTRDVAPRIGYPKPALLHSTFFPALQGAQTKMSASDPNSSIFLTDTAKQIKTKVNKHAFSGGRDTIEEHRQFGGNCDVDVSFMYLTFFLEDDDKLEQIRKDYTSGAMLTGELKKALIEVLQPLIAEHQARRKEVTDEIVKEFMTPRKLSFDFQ
As to the kind of experiment: yeast two-hybrid (LexA system), blue colony on X-gal. The text has this: (§1) Using the recombinant plasmids constructed in the above, Saccaromyces cerevisiae EGY48 (Clontech laboratories Inc. Estojak et al. (1995)) having a lacZ plasmid (p8op-LacZ) as a probe gene was transformed according to the known methods (Golemis, E. A., et al., In Current Protocols in Molecular Biology, 1994).

In data set [3] the target is T4, B42-QRS (glutaminyl-tRNA synthetase) (UniProt P47897 1-775).
T4 construct: Yeast two-hybrid prey; also called pB42-QRS; not shown: B42 protein from pB42 vector (Invitrogen)
T4 sequence (looked up): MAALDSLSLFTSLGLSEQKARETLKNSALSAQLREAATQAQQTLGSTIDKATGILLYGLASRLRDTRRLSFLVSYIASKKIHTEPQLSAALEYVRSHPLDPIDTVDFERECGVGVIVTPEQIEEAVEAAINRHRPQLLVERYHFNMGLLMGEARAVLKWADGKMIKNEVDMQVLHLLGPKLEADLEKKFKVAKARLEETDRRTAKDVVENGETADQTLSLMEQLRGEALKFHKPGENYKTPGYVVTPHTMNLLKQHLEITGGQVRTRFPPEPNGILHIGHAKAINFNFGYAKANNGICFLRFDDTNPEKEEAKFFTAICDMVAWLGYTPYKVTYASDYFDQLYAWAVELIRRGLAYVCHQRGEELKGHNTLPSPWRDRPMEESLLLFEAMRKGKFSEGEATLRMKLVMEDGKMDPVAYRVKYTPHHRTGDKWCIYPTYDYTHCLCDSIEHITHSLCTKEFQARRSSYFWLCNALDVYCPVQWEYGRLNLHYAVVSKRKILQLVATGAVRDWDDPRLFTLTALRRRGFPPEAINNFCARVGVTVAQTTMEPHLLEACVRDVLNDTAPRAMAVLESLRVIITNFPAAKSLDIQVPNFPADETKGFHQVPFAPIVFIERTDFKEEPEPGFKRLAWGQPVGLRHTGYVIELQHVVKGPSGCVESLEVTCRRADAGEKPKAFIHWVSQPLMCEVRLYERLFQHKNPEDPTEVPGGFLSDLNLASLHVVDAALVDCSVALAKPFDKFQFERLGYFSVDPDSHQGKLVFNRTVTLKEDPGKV
The data set is described as above.
From the text: as §1

A further data set addresses T5, B42-(p38/JTV-1) (human, UniProt Q13155 1-312).
T5 construct: Yeast two-hybrid prey; also called pB42-(p38/JTV-1); not shown: B42 protein from pB42 vector (Invitrogen)
T5 sequence: T1 chain
The data set is described as above.
From the text: as §1

Data set [4] addresses T6, B42-YRS (tyrosyl-tRNA synthetase) (UniProt P54577 1-528).
T6 construct: Yeast two-hybrid prey; also called tyrosyl-YRS; pB42-YRS; not shown: B42 protein from pB42 vector (Invitrogen)
T6 sequence (looked up): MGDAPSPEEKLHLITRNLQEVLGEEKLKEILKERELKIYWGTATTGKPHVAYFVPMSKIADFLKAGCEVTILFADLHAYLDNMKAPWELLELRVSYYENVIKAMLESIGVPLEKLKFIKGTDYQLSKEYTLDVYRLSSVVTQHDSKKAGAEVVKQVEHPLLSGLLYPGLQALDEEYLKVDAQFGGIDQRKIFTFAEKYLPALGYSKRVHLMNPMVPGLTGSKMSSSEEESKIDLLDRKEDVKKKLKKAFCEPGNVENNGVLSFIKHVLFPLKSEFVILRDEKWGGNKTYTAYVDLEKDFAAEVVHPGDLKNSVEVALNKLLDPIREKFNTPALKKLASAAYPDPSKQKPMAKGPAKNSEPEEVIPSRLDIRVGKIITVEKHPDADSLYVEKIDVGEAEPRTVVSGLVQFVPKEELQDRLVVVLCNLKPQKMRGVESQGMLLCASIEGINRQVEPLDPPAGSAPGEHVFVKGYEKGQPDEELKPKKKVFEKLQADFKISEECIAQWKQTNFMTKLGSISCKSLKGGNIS
The data set is described as above.
From the text: as §1

Data set [5] addresses T7, PDK-1 (phosphoinositide-dependent kinase) (UniProt O15530 1-556, limits assumed).
T7 construct: Endogenous protein of the cell lysate
T7 sequence (looked up): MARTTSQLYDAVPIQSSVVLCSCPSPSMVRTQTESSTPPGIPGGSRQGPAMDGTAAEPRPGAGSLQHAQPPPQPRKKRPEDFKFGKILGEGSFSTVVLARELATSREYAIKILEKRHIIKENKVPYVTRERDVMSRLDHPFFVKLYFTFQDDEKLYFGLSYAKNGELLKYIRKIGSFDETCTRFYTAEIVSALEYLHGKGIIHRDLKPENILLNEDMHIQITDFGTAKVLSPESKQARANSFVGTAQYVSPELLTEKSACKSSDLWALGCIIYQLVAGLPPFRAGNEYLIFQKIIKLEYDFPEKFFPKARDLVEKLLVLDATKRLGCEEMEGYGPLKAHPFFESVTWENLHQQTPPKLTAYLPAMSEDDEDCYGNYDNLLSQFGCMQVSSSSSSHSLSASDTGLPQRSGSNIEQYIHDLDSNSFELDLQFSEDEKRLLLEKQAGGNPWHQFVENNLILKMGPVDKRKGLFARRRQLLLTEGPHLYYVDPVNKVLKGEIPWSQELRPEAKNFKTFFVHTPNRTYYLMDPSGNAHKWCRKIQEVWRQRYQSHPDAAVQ
Briefly: anti PDK-1 immunoprecipitation from HCT116 cells treated with FasL or TNF, western blot with p38/JTV-1 antibody.

B1: PDK-1 (phosphoinositide-dependent kinase) (protein)
chain: T7 sequence (looked up)
As to B1, the “expression level of the phosphorylated AKT (p-308 and p-473)” value in data set [1] is “when the expression level of p38/JTV-1 was increased, the expression level of the phosphorylated AKT (p-308 and p-473) was decreased”.

B2: myc-tagged p38/JTV-1 deletion fragment, amino acids 162-312 (other)
chain: PENLLKCFGEQNKKQPRQDYQLGFTLIWKNVPKTQMKFSIQTMCPIEGEGNIARFLFSLFGQKHNAVNATLIDSWVDIAIFQLKEGSSKEKAAVFRSMNSALGKSPWLAGNELTVADVVLWSVLQQIGGCSVTVPANVQRWMRSCENLAPF
notes: not shown: myc tag from myc-tagged pcDNA3 (Invitrogen)
Turning to B2, the binding result with HA-FBP is listed as “no binding”.

B3: LexA-(p38/JTV-1) (other)
chain: T1 chain
notes: Yeast two-hybrid bait expressed in S. cerevisiae EGY48; also called fusion protein of p38/JTV-1 and LexA; pLexA-(p38/JTV-1); not shown: LexA protein encoded by pLex202 vector (Invitrogen)
With B3, the binding result in data set [2] is on record as “no binding”; in data set [3], “no binding”; with B42-(p38/JTV-1) it was “binds”; in data set [4], “no binding”.

B4: myc-(p38/JTV-1), amino acids 1-312 (full length) (other)
chain: T1 chain
notes: also called myc-tagged p38/JTV-1; p38/JTV-1 expression plasmid product; not shown: myc tag from myc-tagged pcDNA3 (Invitrogen)
For B4, the binding result in data set [5] is on record as “binds”.
